Where no end group is shown, it is not given here. [ ]: non-standard residue; d: D form. The star is where a group is joined. Biotin = O=C1N[C@H]2[C@H](CS[C@H]2CCCCC(=O)*)N1 Some results are limits rather than exact numbers.

The source of these data is US20090098175A1 (AFFINERGY, published 2009).

In one assay the target is TGF-β1 (UniProt P01137 279-390). Kind of assay: plate assay: biotinylated peptide on streptavidin plate, growth factor titrated, antibody/AP detection. As to the method:
(§1) Briefly, peptides comprising an amino acid sequence of each of SEQ ID NOs: 1-3 were biotinylated to facilitate immobilization on streptavidin-coated 96-well plates. The microtiter plates were coated with streptavidin by adding 50 μl of a 10 μg/ml streptavidin solution in 0.1 M NaHCO₃, and incubating the plates for at least 3 hours. The plate wells were blocked by adding 150 μl of a 1% BSA solution in 0.1 NaHCO₃, and the plates were stored at 4° C. until needed. Before use, the streptavidin plates were washed extensively in buffer-T. Peptides were then added at 20 pmol per well in 100 μl of high-salt buffer-T (containing 500 mM NaCl), and then incubated for 1 hour at room temperature with shaking. 150 μl of 0.5 mM biotin in H₂O was added to block the remaining streptavidin sites, and plates were incubated for an additional hour. Plates were then washed with TBS-T to remove the excess biotin and peptide. Serial dilutions of growth factor (including fibrous connective tissue-inducing growth factors GDF-7, GDF-5, BMP-2, and BMP-6,; and growth factors other than fibrous connective tissue-inducing growth factors, such as BMP-5, TGF-β, TGF-β3, or PDGF-BB) in high-salt buffer-T were added (100 μl) to each well, representing a range of concentrations between 0.01 nM and 100 nM. Plates were incubated for 1 hour at room temperature with shaking prior to washing several times with TBS-T. Growth factors were then detected using 100 μl of the appropriate dilutions of primary antibodies specific for the growth factor being detected. After washing with buffer-T, 100 μl of alkaline phosphatase-conjugated secondary antibody was added to each well and incubated at room temperature for 45 minutes. Excess secondary antibody was removed by repeated washes with buffer-T, and the amount of alkaline phosphatase remaining in the well was detected using a pNPP (para-nitrophenylphos-phate) colorimetric enzymatic assay. The amount of growth factor captured by the peptides was determined by measuring the absorbance at 405 nm of the colored product of the alkaline phosphatase reaction.

The target in the next assay is T1, TGF-β3 (UniProt P10600 301-412).
T1 sequence (looked up): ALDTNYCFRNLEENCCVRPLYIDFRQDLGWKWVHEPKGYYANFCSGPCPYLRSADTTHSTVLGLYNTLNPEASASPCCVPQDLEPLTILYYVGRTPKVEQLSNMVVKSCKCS
The assay is described as above. Here is the method: as §1

The target in a further assay is T2, PDGF-BB (UniProt P01127 82-190).
T2 construct: also called platelet-derived growth factor
Described as above. Here is the method: as §1

For the next assay, the target named is T3, BMP-2 (UniProt P12643 283-396).
T3 construct: also called bone morphogenetic protein 2
Kind of assay: plate assay: biotinylated peptide on streptavidin plate, growth factor titrated 0.01-100 nM, antibody/AP detection. As to the method: as §1

The target of assay [1] is T4, GDF-7 (UniProt Q7Z4P5 322-450, limits assumed).
T4 construct: also called BMP-12; growth and differentiation factor 7
T4 sequence (looked up): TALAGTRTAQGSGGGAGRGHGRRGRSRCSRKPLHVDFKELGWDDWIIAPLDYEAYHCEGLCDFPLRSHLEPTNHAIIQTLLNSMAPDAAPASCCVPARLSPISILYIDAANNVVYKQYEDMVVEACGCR
The assay is described as above. Here is the method:
as §1

The next assay has as its target T5, BMP-5 (UniProt P22003 317-454, limits assumed).
T5 construct: also called bone morphogenetic protein 5
T5 sequence (looked up): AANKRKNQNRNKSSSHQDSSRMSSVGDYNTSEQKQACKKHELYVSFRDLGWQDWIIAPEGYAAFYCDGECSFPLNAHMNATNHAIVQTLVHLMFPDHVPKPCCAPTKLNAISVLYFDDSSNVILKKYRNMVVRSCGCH
The assay is described as above. Here is the method: as §1

A further assay has as its target T6, GDF-5 (UniProt P43026 382-501).
T6 construct: also called BMP-14
T6 sequence (looked up): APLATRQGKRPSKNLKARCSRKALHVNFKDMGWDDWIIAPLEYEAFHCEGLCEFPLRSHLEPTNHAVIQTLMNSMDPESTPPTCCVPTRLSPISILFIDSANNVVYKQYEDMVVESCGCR
The assay is described as above. Here is the method: as §1

A further assay addresses T7, BMP-6 (UniProt P22004 382-513, limits assumed).
T7 construct: also called bone morphogenetic protein 6
T7 sequence (looked up): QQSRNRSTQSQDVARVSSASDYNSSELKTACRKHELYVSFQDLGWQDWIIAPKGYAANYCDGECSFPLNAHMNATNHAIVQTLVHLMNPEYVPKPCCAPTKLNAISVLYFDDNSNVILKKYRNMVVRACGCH
Described as above. Here is the method:
as §1

Assay [2] concerns the target T8, GDF-7 (UniProt Q7Z4P5 322-450).
T8 chain: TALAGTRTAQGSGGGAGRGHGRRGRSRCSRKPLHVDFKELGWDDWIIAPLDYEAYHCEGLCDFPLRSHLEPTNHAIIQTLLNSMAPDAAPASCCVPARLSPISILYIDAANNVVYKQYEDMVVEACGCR
Kind of assay: GDF-7 capture on sutures.

T3 sequence (P12643 283-396 limits assumed): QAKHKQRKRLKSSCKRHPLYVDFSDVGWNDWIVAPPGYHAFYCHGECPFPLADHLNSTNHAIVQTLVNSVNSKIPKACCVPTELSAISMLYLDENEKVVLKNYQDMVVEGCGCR
Chain of TGF-β1 (P01137 279-390 limits assumed): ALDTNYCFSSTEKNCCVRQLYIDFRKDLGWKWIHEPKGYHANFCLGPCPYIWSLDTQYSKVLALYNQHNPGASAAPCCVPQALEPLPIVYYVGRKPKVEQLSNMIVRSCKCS
T2 sequence (P01127 82-190 limits assumed): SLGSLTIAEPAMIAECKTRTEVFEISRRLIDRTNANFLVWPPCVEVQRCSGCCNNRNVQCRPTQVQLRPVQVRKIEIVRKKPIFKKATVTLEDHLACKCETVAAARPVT

For the molecule [code s][code s]GPREIWDSLVGVVNPGW[code s][code r] (also: biotinylated, site not given here) [SEQ ID NO 1], the binding result with TGF-β1, with TGF-β3 and with PDGF-BB was “no binding (tested: growth factor 0.01 nM to 100 nM)” throughout. For the same molecule, the EC50 (as a rule, the concentration that produces a half-maximal response) is under 10 nM with BMP-2; under 1 nM in the assay with GDF-7 [1]; under 100 nM in the assay with BMP-5; under 10 nM with GDF-5; under 10 nM with BMP-6.

B1: 780P (peptide)
chain 1: SWWGFWNGSAAPVWSR
chain 2: SSGGVGGWALFETLRGKEVSR
chain 3: GSSGK(Biotin)
modifications: not fully specified (some residues, C-terminus); also: chains 1-3 joined as one linear peptide (67-GSSG-2-GSSGK)
B1 yielded an EC50 in the assay with GDF-7 [2] of over 100 nM.

As for [code s][code s]VAEWALRSWEGMRVGEA[code s][code r] (also: biotinylated, site not given here) [SEQ ID NO 3], the binding result with TGF-β1, with TGF-β3 and with PDGF-BB was “no binding (tested: growth factor 0.01 nM to 100 nM)” in each case. Further, the EC50 with BMP-2 is under 10 nM; in the assay with GDF-7 [1], under 1 nM; with BMP-5, under 100 nM; in the assay with GDF-5, under 10 nM; with BMP-6 it was under 10 nM.

B2: SEQ ID NO 2 (peptide)
peptide: SSGGVGGWALFETLRGKEVSR
modifications: not fully specified (residues 1, 2, 20, 21); printed as ssGGVGGWALFETLRGKEVsr; also: biotinylated, site not given here
Regarding B2, the binding result with TGF-β1, in the assay with TGF-β3 and in the assay with PDGF-BB was “no binding (tested: growth factor 0.01 nM to 100 nM)” in each case. For the same molecule, the EC50 is under 10 nM with BMP-2; under 1 nM with GDF-7 [1]; under 100 nM with BMP-5; under 10 nM with GDF-5; under 10 nM in the assay with BMP-6.
